{
  "source": "patent US11440969B2",
  "about": "“Use of human epididymis protein 4 (HE4) for assessing responsiveness of MUC 16-positive cancer treatment” (Genentech, Inc., priority 2016, dated 2022)",
  "assay": "Safety of DMUC5754A in patients: related adverse events, DLT, MTD/RP2D (NCI CTCAE v4.0)",
  "type": "in vivo, human",
  "conditions": "for On study PN = No, patients n (%) / On study PN = Yes, patients n (%) / Median time to onset of first PN on study: q1w dosing",
  "method": "This multicenter, open-label, dose-escalation study was designed to identify the recommended Phase II dose (RP2D) of DMUC5754A in patients with platinum-resistant OC or unresectable pancreatic cancer. In the single-agent dose escalation stage utilizing a 3+3 enrollment scheme, patients were given intravenous DMUC5754A (Genentech Inc.) 0.3-3.2 mg/kg every 3 weeks (q3w) to evaluate the safety, tolerability, and pharmacokinetics of DMUC5754A. Following determination of the maximum tolerated dose (MTD), dose-expansion cohorts were enrolled at the RP2D of 2.4 mg/kg to further characterize the safety and preliminary clinical efficacy of DMUC5754A.\nDosing on a weekly (qlw) schedule was also evaluated at the RP2D, employing a 3+3 design to determine the MTD of weekly dosing, followed by a cohort expansion to further characterize the safety and activity of q1w dosing.\nSafety was evaluated according to NCI CTCAE v4.0. […] The maximum tolerated dose (MTD) was defined as the dose at which ≤1 of 6 patients at an assigned dose with protocol-defined DLT. Patients who experienced a DLT or adverse event (AE) meeting DLT criteria after the DLT assessment window were allowed to delay dosing for up to 2 weeks or undergo a dose reduction.",
  "key": {"[1]": {"conditions": "q1w patients, over all dose levels"}},
  "data": [
    {"molecule": "DMUC5754A: antibody-drug conjugate: humanized IgG1 anti-MUC16 monoclonal antibody and MMAE, linked through protease labile linker maleimidocaproyl-valine-citrulline-p-aminobenzyloxycarbonyl (conjugate, chains of the INN, looked up, MMAE via mc-vc-PABC linker) VH: EVQLVESGGGLVQPGGSLRLSCAASGYSITNDYAWNWVRQAPGKGLEWVGYISYSGYTTYNPSLKSRFTISRDTSKNTLYLQMNSLRAEDTAVYYCARWTSGLDYWGQGTLVTVSS VL: DIQMTQSPSSLSASVGDRVTITCKASDLIHNWLAWYQQKPGKAPKLLIYGATSLETGVPSRFSGSGSGTDFTLTISSLQPEDFATYYCQQYWTTPFTFGQGTKVEIK", "values": [
      {"measurement": "Neutropenia (related AE), patients n (%)", "setting": "q1w 1.6 mg/kg (n = 6)", "result": "3 (50.0%)"},
      {"measurement": "Peripheral neuropathy (related AE), patients n (%)", "setting": "q1w 1.6 mg/kg (n = 6)", "result": "1 (16.7%)"},
      {"measurement": "Vomiting (related AE), patients n (%)", "setting": "q1w 1.6 mg/kg (n = 6)", "result": "2 (33.3%)"},
      {"measurement": "Alopecia (related AE), patients n (%)", "setting": "q1w All Patients (n = 23)", "result": "5 (21.7%)"},
      {"measurement": "Anemia (related AE), patients n (%)", "setting": "q1w All Patients (n = 23)", "result": "8 (34.8%)"},
      {"measurement": "Any adverse events (related), patients n (%)", "setting": "q1w All Patients (n = 23)", "result": "20 (87.0%)"},
      {"measurement": "Arthralgia (related AE), patients n (%)", "setting": "q1w All Patients (n = 23)", "result": "3 (13.0%)"},
      {"measurement": "Aspartate aminotransferase increased (related AE), patients n (%)", "setting": "q1w All Patients (n = 23)", "result": "4 (17.4%)"},
      {"measurement": "Constipation (related AE), patients n (%)", "setting": "q1w All Patients (n = 23)", "result": "3 (13.0%)"},
      {"measurement": "Decreased appetite (related AE), patients n (%)", "setting": "q1w All Patients (n = 23)", "result": "5 (21.7%)"},
      {"measurement": "Diarrhea (related AE), patients n (%)", "setting": "q1w All Patients (n = 23)", "result": "5 (21.7%)"},
      {"measurement": "Fatigue (related AE), patients n (%)", "setting": "q1w All Patients (n = 23)", "result": "7 (30.4%)"},
      {"measurement": "Headache (related AE), patients n (%)", "setting": "q1w All Patients (n = 23)", "result": "3 (13.0%)"},
      {"measurement": "Hypomagnesaemia (related AE), patients n (%)", "setting": "q1w All Patients (n = 23)", "result": "5 (21.7%)"},
      {"measurement": "Hyponatremia (related AE), patients n (%)", "setting": "q1w All Patients (n = 23)", "result": "3 (13.0%)"},
      {"measurement": "Nausea (related AE), patients n (%)", "setting": "q1w All Patients (n = 23)", "result": "11 (47.8%)"},
      {"measurement": "Neutropenia (related AE), patients n (%)", "setting": "q1w All Patients (n = 23)", "result": "6 (26.1%)"},
      {"measurement": "Vomiting (related AE), patients n (%)", "setting": "q1w All Patients (n = 23)", "result": "9 (39.1%)"},
      {"measurement": "patients with AEs leading to treatment discontinuation", "setting": "q1w cohorts, 3/23 patients", "result": 13.0, "unit": "%"},
      {"measurement": "On study PN = No, patients n (%)", "setting": "Prior neuropathy = No", "result": "10 (43%)"},
      {"measurement": "On study PN = Yes, patients n (%)", "setting": "Prior neuropathy = No", "result": "2 (9%)"},
      {"measurement": "Median time to onset of first PN on study", "setting": "Prior neuropathy = Yes", "result": 190, "unit": "days"},
      {"measurement": "On study PN = No, patients n (%)", "setting": "Prior neuropathy = Yes", "result": "9 (39%)"},
      {"measurement": "On study PN = Yes, patients n (%)", "setting": "Prior neuropathy = Yes", "result": "2 (9%)"},
      {"measurement": "Median time to onset of first PN on study", "setting": "Total", "result": 190, "unit": "days"},
      {"measurement": "On study PN = No, patients n (%)", "setting": "Total", "result": "19 (83%)"},
      {"measurement": "On study PN = Yes, patients n (%)", "setting": "Total", "result": "4 (17%)"},
      {"measurement": "Drug-related SAE dehydration, patients", "setting": "q1w patients", "result": 1},
      {"measurement": "Drug-related SAE diarrhea, patients", "setting": "q1w patients", "result": 1},
      {"measurement": "Drug-related SAE nausea, patients", "setting": "q1w patients", "result": 1},
      {"measurement": "Drug-related SAE posterior reversible encephalopathy syndrome, patients", "setting": "q1w patients", "result": 1},
      {"measurement": "alopecia, related AE", "setting": "[1]", "result": 21.7, "unit": "%"},
      {"measurement": "anemia, related AE", "setting": "[1]", "result": 34.8, "unit": "%"},
      {"measurement": "decreased appetite, related AE", "setting": "[1]", "result": 21.7, "unit": "%"},
      {"measurement": "diarrhea, related AE", "setting": "[1]", "result": 21.7, "unit": "%"},
      {"measurement": "fatigue, related AE", "setting": "[1]", "result": 30.4, "unit": "%"},
      {"measurement": "hypomagnesaemia, related AE", "setting": "[1]", "result": 21.7, "unit": "%"},
      {"measurement": "nausea, related AE", "setting": "[1]", "result": 47.8, "unit": "%"},
      {"measurement": "neutropenia, related AE", "setting": "[1]", "result": 26.1, "unit": "%"},
      {"measurement": "vomiting, related AE", "setting": "[1]", "result": 39.1, "unit": "%"},
      {"measurement": "Grade ≥3 related diarrhea", "setting": "q1w patients, total", "result": 8.7, "unit": "%"},
      {"measurement": "Grade ≥3 related hyponatraemia", "setting": "q1w patients, total", "result": 8.7, "unit": "%"},
      {"measurement": "Grade ≥3 related neutropenia", "setting": "q1w patients, total", "result": 17.4, "unit": "%"},
      {"measurement": "RP2D", "setting": "q1w schedule", "result": 1.4, "unit": "mg/kg"},
      {"measurement": "Grade ≥3 related diarrhea, patients", "setting": "q1w, at 1.4 mg/kg", "result": 0},
      {"measurement": "Grade ≥3 related hyponatraemia, patients", "setting": "q1w, at 1.4 mg/kg", "result": 0},
      {"measurement": "Grade ≥3 related neutropenia, patients", "setting": "q1w, at 1.4 mg/kg", "result": 1},
      {"measurement": "MTD dose", "setting": "q3w", "result": 2.4, "unit": "mg/kg"},
      {"measurement": "Alopecia (related AE), patients", "setting": "q3w 0.3 mg/kg (n = 3)", "result": 0},
      {"measurement": "Any adverse events (related), patients", "setting": "q3w 0.3 mg/kg (n = 3)", "result": 3},
      {"measurement": "Arthralgia (related AE), patients", "setting": "q3w 0.3 mg/kg (n = 3)", "result": 0},
      {"measurement": "Asthenia (related AE), patients", "setting": "q3w 0.3 mg/kg (n = 3)", "result": 0},
      {"measurement": "Decreased appetite (related AE), patients", "setting": "q3w 0.3 mg/kg (n = 3)", "result": 1},
      {"measurement": "Diarrhea (related AE), patients", "setting": "q3w 0.3 mg/kg (n = 3)", "result": 0},
      {"measurement": "Dysgeusia (related AE), patients", "setting": "q3w 0.3 mg/kg (n = 3)", "result": 0},
      {"measurement": "Fatigue (related AE), patients", "setting": "q3w 0.3 mg/kg (n = 3)", "result": 0},
      {"measurement": "Hypokalemia (related AE), patients", "setting": "q3w 0.3 mg/kg (n = 3)", "result": 0},
      {"measurement": "Hypomagnesaemia (related AE), patients", "setting": "q3w 0.3 mg/kg (n = 3)", "result": 1},
      {"measurement": "Hypophosphatemia (related AE), patients", "setting": "q3w 0.3 mg/kg (n = 3)", "result": 0},
      {"measurement": "Nausea (related AE), patients", "setting": "q3w 0.3 mg/kg (n = 3)", "result": 1},
      {"measurement": "Neutropenia (related AE), patients", "setting": "q3w 0.3 mg/kg (n = 3)", "result": 0},
      {"measurement": "Peripheral neuropathy (related AE), patients", "setting": "q3w 0.3 mg/kg (n = 3)", "result": 1}
    ]}
  ]
}
